In paper PMC6389178, “Nanoscale click-reactive scaffolds from peptide self-assembly” (Journal of Nanobiotechnology, 2017):
Where no end group is shown, it is not given here.

Target: the molecule itself
Test: atomic force microscopy + co-sedimentation; peptide 10 mg/mL in 10% acetonitrile in water, shaken at 600 rpm at 37 °C for 24 h; fibrils imaged by AFM on mica; fibrils pelleted at 313,000 x g for 30 min, supernatant with unaggregated monomer removed, and the pellet's peptide analysed by LC-MS

YTIAALLSPYS-NH2 [TTR105-115 peptide, unfunctionalised 'wild-type', amide-terminated]
binding result: binds
